Values of other authors in patent publication US20250177452A1, “USE OF IMMUNOSUPPRESSION TO ENABLE ENGRAFTMENT OF HEMATOPOIETIC STEM CELLS” (The Board of Trustees of the Leland Stanford Junior …, priority 2022, published 2025).

Tests used:
[1] = molecular target: T1, CD52 (Homo sapiens, UniProt P31358); conditions: single injection
T1 construct: CD52 is expressed on 95% of peripheral blood lymphocytes, monocytes and thymocytes; host or cells: endogenous CD52 on peripheral blood lymphocytes in vivo

[2] = in vivo

| Molecule | depletion of lymphocytes [1] | maximum tolerated dose (MTD) [2] |
| --- | --- | --- |
| Alemtuzumab: recombinant humanized monoclonal antibody against CD52 | over 99% | – |
| IMGN901: CD56-targeting antibody-drug conjugate delivering the cytotoxic maytansinoid DM1 (conjugate, chains of the INN, looked up, DM1 maytansinoid payload, CD56-targeting antibody-drug conjugate delivering the cytotoxic maytansinoid DM1) VH: QVQLVESGGGVVQPGRSLRLSCAASGFTFSSFGMHWVRQAPGKGLEWVAYISSGSFTIYYADSVKGRFTISRDNSKNTLYLQMNSLRAEDTAVYYCARMRKGYAMDYWGQGTLVTVSS VL: DVVMTQSPLSLPVTLGQPASISCRSSQIIIHSDGNTYLEWFQQRPGQSPRRLIYKVSNRFSGVPDRFSGSGSGTDFTLKISRVEAEDVGVYYCFQGSHVPHTFGQGTKVEIK | – | about 75 mg/m^2 |
